{"source": "patent US20080199514A1", "about": "(BURNHAM INSTITUTE, published 2008)", "biological_target": "T1, Lck phosphopeptide (ARLIEDNEpYTAAREG)", "T1 chain": "ARLIEDNEYTAAREG"}
{"protein": "full length Hemagglutinin (HA) tagged LYP having W620 (protein) MDQREILQKFLDEAQSKKITKEEFANEFLKLKRQSTKYKADKTYPTTVAEKPKNIKKNRYKDILPYDYSRVELSLITSDEDSSYINANFIKGVYGPKAYIATQGPLSTTLLDFWRMIWEYSVLIIVMACMEYEMGKKKCERYWAEPGEMQLEFGPFSVSCEAEKRKSDYIIRTLKVKFNSETRTIYQFHYKNWPDHDVPSSIDPILELIWDVRCYQEDDSVPICIHCSAGCGRTGVICAIDYTWMLLKDGIIPENFSVFSLIREMRTQRPSLVQTQEQYELVYNAVLELFKRQMDVIRDKHSGTESQAKHCIPEKNHTLQADSYSPNLPKSTTKAAKMMNQQRTKMEIKESSSFDFRTSEISAKEELVLHPAKSSTSFDFLELNYSFDKNADTTMKWQTKAFPIVGEPLQKHQSLDLGSLLFEGCSNSKPVNAAGRYFNSKVPITRTKSTPFELIQQRETKEVDSKENFSYLESQPHDSCFVEMQAQKVMHVSSAELNYSLPYDSKHQIRNASNVKHHDSSALGVYSYIPLVENPYFSSWPPSGTSSKMSLDLPEKQDGTVFPSSLLPTSSTSLFSYYNSHDSLSLNSPTNISSLLNQESAVLATAPRIDDEIPPPLPVWTPESFIVVEEAGEFSPNVPKSLSSAVKVKIGTSLEWGGTSEPKKFDDSVILRPSKSVKLRSPKSELHQDRSSPPPPLPERTLESFFLADEDCMQAQSIETYSTSYPDTMENSTSSKQTLKTPGKSFTRSKSLKILRNMKKSICNSCPPNKPAESVQSNNSSSFLNFGFANRFSKPKGPRNPPPTWNI", "values": [{"measurement": "Dephosphorylation of an Lck phosphopeptide by immunoprecipitated HA-tagged LYP; specific activity relative to LYP*R620", "result": "LYP*W620 displayed a 57.2% (±9.8%, n=5) higher specific activity when corrected for amount of protein"}]}
